Test results reported in US9951335B2, “Compositions and methods for treating otitis media and other conditions with inhibitors of CYLD” (Georgia State University Research Foundation, Inc., priority 2012, dated 2018).

How the values were obtained:
[1] = test system: PAI-1; experiment: TGF-β-induced PAI-1 expression (promoter activity, mRNA) in human cells; type: cell-based; settings: A549 and HeLa cells
Procedure: Total RNA was isolated using TRIzol reagent following the manufacturer's instructions. Synthesis of complementary DNA from total RNA was performed with MultiScribe reverse transcriptase. Real-time quantitative PCR was performed using an ABI 7500 Sequence Detection System (Applied Biosystems). Relative quantities of mRNAs were calculated using the comparative threshold cycle method and normalized using human and mouse glyceraldehyde-3-phosphate dehydrogenase as an endogenous control. The primer sequences for mouse COL1A2, COL3A1, CTGF and PAI-1, and human PAI-1, CHIP, and Smad3 are as follows. Mouse CTGF: 5′-[…]-3′ (SEQ ID NO:1) and 5′-[…]-3′ (SEQ ID NO:2); mouse COL1A2: 5′-[…]-3′ (SEQ ID NO:3) and 5′-[…]-3′ (SEQ ID NO:4); mouse COL3A1: 5′-[…]-3′ (SEQ ID NO:5) and 5′-[…]-3′ (SEQ ID NO:6); mouse PAI-1: 5′-[…]-3′ (SEQ ID NO:7) and 5′-[…]-3′ (SEQ ID NO:8); human PAI-1: 5′-[…]-3′ (SEQ ID NO:9) and 5′-[…]-3′ (SEQ ID NO:10); human CHIP: 5′-[…]-3′ (SEQ ID NO:11) and 5′-[…]-3′ (SEQ ID NO:12).
(§1) The expression plasmids Flag-WT-CYLD, HA-WT-CYLD, Flag-H/N-CYLD, HA-C/S-CYLD, Flag-WT-Smad3, C/A-TβRI, and the reporter plasmids SBE-Luc, PAI-1-Luc, and NF-κB-Luc were previously described. Flag-WT-Akt1, pRK5-HA-Ub WT, pRK5-HA-Ub K63, and pRK5-HA-Ub K48 were from Addgene, and K to R mutants of Akt were generated with WT-Akt1 using QuickChange XL Site-Directed Mutagenesis kit (Stratagene). All transient transfections were carried out using TransIT-LT1 reagent (Minis) or Lipofectamine (Invitrogen) according to manufacturers' instructions.

[2] = test system: Akt; experiment: Akt ubiquitination in cells (immunoprecipitation, immunoblotting); type: cell-based, human; settings: epithelial cells
Procedure: Western blot, immunoprecipitation and ubiquitination experiments were performed as follows. Western blots were performed using whole-cell extracts, separated on 8 or 10% SDS-PAGE gels, and transferred to polyvinylidine di& uoride membranes. The membrane was blocked with a solution of PBS containing 0.1% Tween 20 (PBS-T) and 5% BSA. The membrane was then incubated in a 1:2,000 dilution of a primary antibody in 5% BSA-PBS-T. After three washes in PBS-T, the membrane was incubated with 1:5,000 dilution of the corresponding secondary antibody in 3% non-fact skim milk-PBS-T. Respective proteins were visualized by using enhanced chemiluminescence detection reagents, according to the manufacturer's instructions. To conduct immunoprecipitation analysis, cell lysates were incubated with 1 μg of primary antibodies overnight, at 4° C., followed by 2-h incubation with protein A/G-agarose beads (Invitrogen). Immunoprecipitates were then suspended in a sample buffer, separated on 8% SDS-PAGE, transferred to polyvinylidine difluoride membrane, and detected by immunoblot analysis, as described above. […]

[3] = test system: NF-κB; experiment: TNF-α-induced NF-κB-Luc activity; type: cell-based; settings: TNF-α 10 ng ml−1
Procedure: as §1

[4] = test system: TGF-β-signalling; experiment: TGF-β-induced SBE-promoter (SBE-Luc) activity in human epithelial cells; type: cell-based
Procedure: as §1

[5] = test system: TGF-β-signalling; experiment: TGF-β-induced SBE-promoter activity in mouse MEF cells; type: cell-based
Procedure: as §1

[6] = test system: CYLD; experiment: CYLD knockdown efficiency of siCYLD (immunoblotting); type: cell-based, human; settings: a number of cell types including NHBE cells
Procedure: RNA-mediated interference for downregulating CYLD expression was carried out using pSuper-CYLD and the sequence for the siCYLD is 5′-[…]-3′ (SEQ ID NO:13). Human and mouse siRNAs for Akt and CHIP were from Dharmacon, and knockdown of Akts and CHIP, using siAkt and siCHIP, was performed with Lipofectamine 2000 (Invitrogen). ON-TARGETplus SMARTpool of siRNAs targeting human Akt1, human CHIP, mouse Akt1, and mouse Akt2 consists of four siRNAs and sequences for the siRNAs are as follows: Human siAkt1 (5′-[…]-3′ (SEQ ID NO:14), 5′-[…]-3′ (SEQ ID NO:15), 5′[…]-3′ (SEQ ID NO:16), 5′-[…]-3′ (SEQ ID NO:17)); human CHIP (5′-[…]-3′ (SEQ ID NO:18), 5′-[…]-3′ (SEQ ID NO:19), 5′-[…]-3′ (SEQ ID NO:20), 5′-[…]-3′ (SEQ ID NO:21)); mouse Akt1 (5′-[…]-3′ (SEQ ID NO:22), 5′-[…]-3′ (SEQ ID NO:23), 5′-[…]-3′ (SEQ ID NO:24), 5′-[…]-3′ (SEQ ID NO:25)); mouse Akt2 (5′-[…]-3′ (SEQ ID NO:26), 5′-[…]-3′ (SEQ ID NO:27), 5′-[…]-3′ (SEQ ID NO:28), 5′-[…]-3′ (SEQ ID NO:29)).
Western blot, immunoprecipitation and ubiquitination experiments were performed as follows. Western blots were performed using whole-cell extracts, separated on 8 or 10% SDS-PAGE gels, and transferred to polyvinylidine di& uoride membranes. […] Immunoprecipitates were then suspended in a sample buffer, separated on 8% SDS-PAGE, transferred to polyvinylidine difluoride membrane, and detected by immunoblot analysis, as described above. […]

B1: siCYLD: RNA-mediated interference for downregulating CYLD expression using pSuper-CYLD, SEQ ID NO:13 (nucleic acid)
chain: GATCCCCGAGCTACTGAGGACAGAAATTCAAGAGATTTCTGTCCTCAGTAGCTCTTTTTGGAAA
modifications: expressed from pSuper vector
- TGF-α-responsive PAI-1 promoter activity [1]: markedly enhanced
- PAI-1 messenger RNA ([1]; TGF-β stimulated): markedly enhanced
- S. pneumoniae-induced Akt ubiquitination [2]: markedly enhanced
- TNF-α-induced activation of NF-κB-Luc activity [3]: greatly enhanced
- TGF-β-induced Smad-binding element (SBE)-dependent promoter activity ([4]; A549 and HeLa cells): markedly enhanced
- TGF-β-induced SBE-dependent promoter activity, dose-dependent manner ([4]; A549 cells transfected with various amounts): enhanced
- TGF-β-induced SBE-Luc activity ([4]; human primary bronchial epithelial NHBE cells): enhanced
- SBE-Luc activity in the absence of Smad3 ([5]; Smad3-deficient MEF cells): did not enhance
- SBE-Luc activity in cells reconstituted with WT-Smad3 ([5]; Smad3-deficient MEF cells + WT-Smad3): markedly enhanced
- endogenous CYLD protein expression [6]: efficiently reduced
